The results in this text go back to patent publication US20220372155A1 (LYVGEN BIOPHARMA, published 2022).

The experiment deals with T1, human CD40 expressed on CHO cells (human, UniProt P25942 21-277).
T1 construct: whole, on cells; also used for the reporter cells over-expressing human CD40; also called cellular CD40; CHO-CD40 cells
Kind of experiment: FACS, CHO cells.

T1 sequence (P25942 21-277): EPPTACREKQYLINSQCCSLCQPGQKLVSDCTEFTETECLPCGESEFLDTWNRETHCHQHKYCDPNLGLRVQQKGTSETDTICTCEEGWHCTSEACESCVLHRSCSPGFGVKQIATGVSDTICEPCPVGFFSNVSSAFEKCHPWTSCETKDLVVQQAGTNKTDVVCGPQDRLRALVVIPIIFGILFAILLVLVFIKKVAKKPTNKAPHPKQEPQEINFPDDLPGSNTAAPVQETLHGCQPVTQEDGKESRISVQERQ

B1: Ly465 (bispecific antibody, human IgG1, kappa)
heavy: QVQLKESGPGLVAPSQSLSITCTVSGFSLTDYGVRWIRQPPGKGLEWLGVIWGGGSTYYNSALKSRLSISKDNSKSQVFLKMNSLQTDDTAMYYCAKEKRRGYYYAMDYWGQGTSVTVSSASTKGPSVFPLAPSSKSTSGGTAALGCLVKDYFPEPVTVSWNSGALTSGVHTFPAVLQSSGLYSLSSVVTVPSSSLGTQTYICNVNHKPSNTKVDKKVEPKSCDKTHTCPPCPAPELLGPSVFLFPPKPKDTLMISRTPEVTCVVVDVSHEDPEVKFNWYVDGVEVHNAKTKPREEQYNSTYRVVSVLTVLHQDWLNGKEYKCKVSNKALPAPIEKTISKAKGQPREPQVYTLPPSREEMTKNQVSLTCLVKGFYPSDIAVEWESNGQPENNYKTTPPVLDSDGSFFLYSKLTVDKSRWQQGNVFSCSVMHEALHNHYTQKSLSLSPG
light: ENVLTQSPAIMSASPGEKVTMTCRASSSVSSSYLHWYQQKSGASPKLWIYSTSNLASGVPARFSGSGSGTSYSLTISSVEAEDAATYYCQQYSGYPLTFGGGTKLEIKRTVAAPSVFIFPPSDEQLKSGTASVVCLLNNFYPREAKVQWKVDNALQSGNSQESVTEQDSKDSTYSLSSTLTLSKADYEKHKVYACEVTHQGLSSPVTKSFNRGECGGGGSGGGGSGGGGSGGGGSQVQLVESGGGLVQPGGSLKLSCATSGFNFNDYFMNWVRQASGKGLEWVGQIRNKNYNYATYYTESLEGRVTISRDDSKNTAYLQMNSLKTEDTAVYYCTSYYYDGFADYFDYWGQGTTVTVSSGGGGSGGGGSGGGGSGGGGSDIQMTQSPSSLSASVGDRVTITCKASQNIYIYLNWYQQKPGKAPKLLIYNTNNLQTGVPSRFSGSGSGTDFTLTISSLQPEDFATYYCLQHSSRRTFGGGTKVEIK
notes: Ly368 HC + Ly368 LC-TM740 scFv VH-VL
Regarding B1, the binding result is “binds”.

B2: Ly468 (bispecific antibody, human IgG1, kappa)
heavy: QVQLKESGPGLVAPSQSLSITCTVSGFSLTDYGVRWIRQPPGKGLEWLGVIWGGGSTYYNSALKSRLSISKDNSKSQVFLKMNSLQTDDTAMYYCAKEKRRGYYYAMDYWGQGTSVTVSSASTKGPSVFPLAPSSKSTSGGTAALGCLVKDYFPEPVTVSWNSGALTSGVHTFPAVLQSSGLYSLSSVVTVPSSSLGTQTYICNVNHKPSNTKVDKKVEPKSCDKTHTCPPCPAPELLGPSVFLFPPKPKDTLMISRTPEVTCVVVDVSHEDPEVKFNWYVDGVEVHNAKTKPREEQYNSTYRVVSVLTVLHQDWLNGKEYKCKVSNKALPAPIEKTISKAKGQPREPQVYTLPPSREEMTKNQVSLTCLVKGFYPSDIAVEWESNGQPENNYKTTPPVLDSDGSFFLYSKLTVDKSRWQQGNVFSCSVMHEALHNHYTQKSLSLSPG
light: ENVLTQSPAIMSASPGEKVTMTCRASSSVSSSYLHWYQQKSGASPKLWIYSTSNLASGVPARFSGSGSGTSYSLTISSVEAEDAATYYCQQYSGYPLTFGGGTKLEIKRTVAAPSVFIFPPSDEQLKSGTASVVCLLNNFYPREAKVQWKVDNALQSGNSQESVTEQDSKDSTYSLSSTLTLSKADYEKHKVYACEVTHQGLSSPVTKSFNRGECGGGGSGGGGSGGGGSGGGGSDIQMTQSPSSLSASVGDRVTITCLASEDISNDLAWYQQKPGKAPKLLIYFVDRLLDGVPSRFSGSGSGTDFTLTISSLQPEDFATYYCQQSYKYPPTFGQGTKLEIKGGGGSGGGGSGGGGSGGGGSEVQLVESGGGLVQPGGSLRLSCAASGFTFTNYGLHWVRQAPGKGLEWVSSISPSGGVTYYRDSVKGRFTISRDNSKNTLYLQMNSLRAEDTAVYYCAKPFLGWGGANWIAHWGQGTLVTVSS
notes: Ly368 HC + Ly368 LC-TM559 scFv VL-VH
As to B2, the binding result is reported as “binds”.

B3: Ly469 (bispecific antibody, human IgG1, kappa)
heavy: QVQLKESGPGLVAPSQSLSITCTVSGFSLTDYGVRWIRQPPGKGLEWLGVIWGGGSTYYNSALKSRLSISKDNSKSQVFLKMNSLQTDDTAMYYCAKEKRRGYYYAMDYWGQGTSVTVSSASTKGPSVFPLAPSSKSTSGGTAALGCLVKDYFPEPVTVSWNSGALTSGVHTFPAVLQSSGLYSLSSVVTVPSSSLGTQTYICNVNHKPSNTKVDKKVEPKSCDKTHTCPPCPAPELLGPSVFLFPPKPKDTLMISRTPEVTCVVVDVSHEDPEVKFNWYVDGVEVHNAKTKPREEQYNSTYRVVSVLTVLHQDWLNGKEYKCKVSNKALPAPIEKTISKAKGQPREPQVYTLPPSREEMTKNQVSLTCLVKGFYPSDIAVEWESNGQPENNYKTTPPVLDSDGSFFLYSKLTVDKSRWQQGNVFSCSVMHEALHNHYTQKSLSLSPG
light: ENVLTQSPAIMSASPGEKVTMTCRASSSVSSSYLHWYQQKSGASPKLWIYSTSNLASGVPARFSGSGSGTSYSLTISSVEAEDAATYYCQQYSGYPLTFGGGTKLEIKRTVAAPSVFIFPPSDEQLKSGTASVVCLLNNFYPREAKVQWKVDNALQSGNSQESVTEQDSKDSTYSLSSTLTLSKADYEKHKVYACEVTHQGLSSPVTKSFNRGECGGGGSGGGGSGGGGSGGGGSEVQLVESGGGLVQPGGSLRLSCAASGFTFTNYGLHWVRQAPGKGLEWVSSISPSGGVTYYRDSVKGRFTISRDNSKNTLYLQMNSLRAEDTAVYYCAKPFLGWGGANWIAHWGQGTLVTVSSGGGGSGGGGSGGGGSGGGGSDIQMTQSPSSLSASVGDRVTITCLASEDISNDLAWYQQKPGKAPKLLIYFVDRLLDGVPSRFSGSGSGTDFTLTISSLQPEDFATYYCQQSYKYPPTFGQGTKLEIK
notes: Ly368 HC + Ly368 LC-TM559 scFv VH-VL
Regarding B3, the binding result is given as “binds”.

B4: Ly472 (bispecific antibody, human IgG1, kappa)
heavy: QVQLKESGPGLVAPSQSLSITCTVSGFSLTDYGVRWIRQPPGKGLEWLGVIWGGGSTYYNSALKSRLSISKDNSKSQVFLKMNSLQTDDTAMYYCAKEKRRGYYYAMDYWGQGTSVTVSSASTKGPSVFPLAPSSKSTSGGTAALGCLVKDYFPEPVTVSWNSGALTSGVHTFPAVLQSSGLYSLSSVVTVPSSSLGTQTYICNVNHKPSNTKVDKKVEPKSCDKTHTCPPCPAPELLGPSVFLFPPKPKDTLMISRTPEVTCVVVDVSHEDPEVKFNWYVDGVEVHNAKTKPREEQYNSTYRVVSVLTVLHQDWLNGKEYKCKVSNKALPAPIEKTISKAKGQPREPQVYTLPPSREEMTKNQVSLTCLVKGFYPSDIAVEWESNGQPENNYKTTPPVLDSDGSFFLYSKLTVDKSRWQQGNVFSCSVMHEALHNHYTQKSLSLSPG
light: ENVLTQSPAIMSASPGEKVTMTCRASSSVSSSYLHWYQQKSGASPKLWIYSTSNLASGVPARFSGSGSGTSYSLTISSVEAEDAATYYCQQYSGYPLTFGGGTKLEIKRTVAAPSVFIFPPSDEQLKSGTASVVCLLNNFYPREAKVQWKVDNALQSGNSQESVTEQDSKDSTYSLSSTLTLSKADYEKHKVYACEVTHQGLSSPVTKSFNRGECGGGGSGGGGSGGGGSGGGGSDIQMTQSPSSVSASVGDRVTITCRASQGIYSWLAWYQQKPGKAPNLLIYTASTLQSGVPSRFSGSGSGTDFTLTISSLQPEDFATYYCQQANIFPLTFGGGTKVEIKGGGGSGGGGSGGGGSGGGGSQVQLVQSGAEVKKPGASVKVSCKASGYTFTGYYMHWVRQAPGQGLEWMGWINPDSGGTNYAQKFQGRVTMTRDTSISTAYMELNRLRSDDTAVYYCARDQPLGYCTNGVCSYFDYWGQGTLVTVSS
notes: Ly368 HC + Ly368 LC-Ly253 scFv VL-VH
Take B4: the binding result is recorded as “binds”.

B5: TM377 (antibody, human IgG4 S228P, kappa, V domains shown)
VH: EVQILETGGGLVKPGGSLRLSCATSGFNFNDSFMNWVRQAPGKGLEWVAQIRNKNYNYATYYTESLEGRVTISRDDSKSRVYLQVSSLRAEDSAVYYCTSYYYDGFADYFDYWGQGVMVTVSS
VL: DIKMTQSPSFLSASVGDSVTFTCKASQNIYIYLNWYQQKFGEAPKLLIYNTNNLQTGIPSRFSGSESGTVFTLTISSLQPEDVATYFCLQHSSRRTFGGGTKLELKR
notes: chimeric: LYV377 VH/human IgG4, LYV377 VL/kappa; also called chimeric parent TM377
B5: the binding result was “binds”.

B6: Ly466 (bispecific antibody, human IgG1, kappa)
heavy: QVQLKESGPGLVAPSQSLSITCTVSGFSLTDYGVRWIRQPPGKGLEWLGVIWGGGSTYYNSALKSRLSISKDNSKSQVFLKMNSLQTDDTAMYYCAKEKRRGYYYAMDYWGQGTSVTVSSASTKGPSVFPLAPSSKSTSGGTAALGCLVKDYFPEPVTVSWNSGALTSGVHTFPAVLQSSGLYSLSSVVTVPSSSLGTQTYICNVNHKPSNTKVDKKVEPKSCDKTHTCPPCPAPELLGPSVFLFPPKPKDTLMISRTPEVTCVVVDVSHEDPEVKFNWYVDGVEVHNAKTKPREEQYNSTYRVVSVLTVLHQDWLNGKEYKCKVSNKALPAPIEKTISKAKGQPREPQVYTLPPSREEMTKNQVSLTCLVKGFYPSDIAVEWESNGQPENNYKTTPPVLDSDGSFFLYSKLTVDKSRWQQGNVFSCSVMHEALHNHYTQKSLSLSPGGGGGSGGGGSGGGGSGGGGSDIQMTQSPSSLSASVGDRVTITCLASEDISNDLAWYQQKPGKAPKLLIYFVDRLLDGVPSRFSGSGSGTDFTLTISSLQPEDFATYYCQQSYKYPPTFGQGTKLEIKGGGGSGGGGSGGGGSGGGGSEVQLVESGGGLVQPGGSLRLSCAASGFTFTNYGLHWVRQAPGKGLEWVSSISPSGGVTYYRDSVKGRFTISRDNSKNTLYLQMNSLRAEDTAVYYCAKPFLGWGGANWIAHWGQGTLVTVSS
light: ENVLTQSPAIMSASPGEKVTMTCRASSSVSSSYLHWYQQKSGASPKLWIYSTSNLASGVPARFSGSGSGTSYSLTISSVEAEDAATYYCQQYSGYPLTFGGGTKLEIKRTVAAPSVFIFPPSDEQLKSGTASVVCLLNNFYPREAKVQWKVDNALQSGNSQESVTEQDSKDSTYSLSSTLTLSKADYEKHKVYACEVTHQGLSSPVTKSFNRGEC
notes: Ly368 HC-TM559 scFv VL-VH + Ly368 LC
Turning to B6, the binding result is given as “binds”.

B7: Ly471 (bispecific antibody, human IgG1, kappa)
heavy: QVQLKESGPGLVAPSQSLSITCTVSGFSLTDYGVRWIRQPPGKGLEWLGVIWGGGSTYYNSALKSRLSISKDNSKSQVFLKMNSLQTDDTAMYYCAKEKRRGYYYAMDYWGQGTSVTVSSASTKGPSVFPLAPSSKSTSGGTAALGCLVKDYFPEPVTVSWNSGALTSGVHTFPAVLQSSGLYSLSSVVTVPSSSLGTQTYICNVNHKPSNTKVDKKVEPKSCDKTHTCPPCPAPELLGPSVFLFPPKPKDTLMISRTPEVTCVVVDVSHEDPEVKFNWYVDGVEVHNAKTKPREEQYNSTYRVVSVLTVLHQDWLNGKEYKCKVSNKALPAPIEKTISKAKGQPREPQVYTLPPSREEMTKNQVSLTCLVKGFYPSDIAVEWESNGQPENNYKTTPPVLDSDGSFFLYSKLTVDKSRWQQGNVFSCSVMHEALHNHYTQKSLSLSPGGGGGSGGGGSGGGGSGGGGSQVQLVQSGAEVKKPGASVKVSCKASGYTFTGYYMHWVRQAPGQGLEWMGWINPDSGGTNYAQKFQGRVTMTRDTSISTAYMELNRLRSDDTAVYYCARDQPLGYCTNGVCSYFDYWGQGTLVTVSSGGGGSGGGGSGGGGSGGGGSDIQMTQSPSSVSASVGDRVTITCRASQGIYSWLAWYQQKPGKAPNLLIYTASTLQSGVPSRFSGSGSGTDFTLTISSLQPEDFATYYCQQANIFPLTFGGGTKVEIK
light: ENVLTQSPAIMSASPGEKVTMTCRASSSVSSSYLHWYQQKSGASPKLWIYSTSNLASGVPARFSGSGSGTSYSLTISSVEAEDAATYYCQQYSGYPLTFGGGTKLEIKRTVAAPSVFIFPPSDEQLKSGTASVVCLLNNFYPREAKVQWKVDNALQSGNSQESVTEQDSKDSTYSLSSTLTLSKADYEKHKVYACEVTHQGLSSPVTKSFNRGEC
notes: Ly368 HC-Ly253 scFv VH-VL + Ly368 LC
As for B7, the binding result is reported as “binds”.

B8: Ly470 (bispecific antibody, human IgG1, kappa)
heavy: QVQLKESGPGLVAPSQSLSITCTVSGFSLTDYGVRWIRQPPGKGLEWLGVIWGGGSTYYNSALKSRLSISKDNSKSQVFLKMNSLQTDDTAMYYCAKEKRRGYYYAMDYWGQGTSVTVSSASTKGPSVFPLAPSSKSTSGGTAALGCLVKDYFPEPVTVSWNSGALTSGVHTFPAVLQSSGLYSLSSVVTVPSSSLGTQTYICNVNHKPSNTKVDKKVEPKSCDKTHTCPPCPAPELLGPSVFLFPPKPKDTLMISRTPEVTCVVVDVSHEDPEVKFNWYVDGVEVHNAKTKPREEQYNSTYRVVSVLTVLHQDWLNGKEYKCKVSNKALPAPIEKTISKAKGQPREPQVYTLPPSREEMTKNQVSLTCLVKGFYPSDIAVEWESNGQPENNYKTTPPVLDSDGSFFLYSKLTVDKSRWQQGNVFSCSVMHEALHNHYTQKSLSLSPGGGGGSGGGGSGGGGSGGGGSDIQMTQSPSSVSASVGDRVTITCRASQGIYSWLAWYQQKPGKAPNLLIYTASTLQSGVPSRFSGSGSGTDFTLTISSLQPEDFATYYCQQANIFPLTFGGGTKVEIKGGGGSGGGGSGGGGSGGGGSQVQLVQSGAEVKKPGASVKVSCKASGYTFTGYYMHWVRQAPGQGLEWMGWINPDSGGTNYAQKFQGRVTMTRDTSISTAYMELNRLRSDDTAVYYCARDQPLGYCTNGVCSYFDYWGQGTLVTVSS
light: ENVLTQSPAIMSASPGEKVTMTCRASSSVSSSYLHWYQQKSGASPKLWIYSTSNLASGVPARFSGSGSGTSYSLTISSVEAEDAATYYCQQYSGYPLTFGGGTKLEIKRTVAAPSVFIFPPSDEQLKSGTASVVCLLNNFYPREAKVQWKVDNALQSGNSQESVTEQDSKDSTYSLSSTLTLSKADYEKHKVYACEVTHQGLSSPVTKSFNRGEC
notes: Ly368 HC-Ly253 scFv VL-VH + Ly368 LC
Consider B8, for which the binding result was “binds”.

B9: Ly467 (bispecific antibody, human IgG1, kappa)
heavy: QVQLKESGPGLVAPSQSLSITCTVSGFSLTDYGVRWIRQPPGKGLEWLGVIWGGGSTYYNSALKSRLSISKDNSKSQVFLKMNSLQTDDTAMYYCAKEKRRGYYYAMDYWGQGTSVTVSSASTKGPSVFPLAPSSKSTSGGTAALGCLVKDYFPEPVTVSWNSGALTSGVHTFPAVLQSSGLYSLSSVVTVPSSSLGTQTYICNVNHKPSNTKVDKKVEPKSCDKTHTCPPCPAPELLGPSVFLFPPKPKDTLMISRTPEVTCVVVDVSHEDPEVKFNWYVDGVEVHNAKTKPREEQYNSTYRVVSVLTVLHQDWLNGKEYKCKVSNKALPAPIEKTISKAKGQPREPQVYTLPPSREEMTKNQVSLTCLVKGFYPSDIAVEWESNGQPENNYKTTPPVLDSDGSFFLYSKLTVDKSRWQQGNVFSCSVMHEALHNHYTQKSLSLSPGGGGGSGGGGSGGGGSGGGGSEVQLVESGGGLVQPGGSLRLSCAASGFTFTNYGLHWVRQAPGKGLEWVSSISPSGGVTYYRDSVKGRFTISRDNSKNTLYLQMNSLRAEDTAVYYCAKPFLGWGGANWIAHWGQGTLVTVSSGGGGSGGGGSGGGGSGGGGSDIQMTQSPSSLSASVGDRVTITCLASEDISNDLAWYQQKPGKAPKLLIYFVDRLLDGVPSRFSGSGSGTDFTLTISSLQPEDFATYYCQQSYKYPPTFGQGTKLEIK
light: ENVLTQSPAIMSASPGEKVTMTCRASSSVSSSYLHWYQQKSGASPKLWIYSTSNLASGVPARFSGSGSGTSYSLTISSVEAEDAATYYCQQYSGYPLTFGGGTKLEIKRTVAAPSVFIFPPSDEQLKSGTASVVCLLNNFYPREAKVQWKVDNALQSGNSQESVTEQDSKDSTYSLSSTLTLSKADYEKHKVYACEVTHQGLSSPVTKSFNRGEC
notes: Ly368 HC-TM559 scFv VH-VL + Ly368 LC
Take B9: the binding result was “binds”.
